The supplement of paper PMC11780869

System: Bacillus subtilis
Assay: cleaved RNA product abundance (RNA/gDNA barcode ratio) relative to median wild-type variant (ratio to wild type); higher = more accumulation of the downstream cleavage product
Conditions: experiment (reporter, strain, medium): exp 8a: truncated aprE reporter, strain BJT201 with 2% xylose (RNase J1 expressed); cleavage site: glnRA (positions -5 to +31 mutated)
Procedure, shortened: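 Reporter mRNAs based on truncated aprE or tetM carried barcoded, mutagenized RNase Y cleavage-site windows built from oligos with a 9% error rate and were integrated into the B. subtilis chromosome. Cultures grew in LB at 37°C from OD600 0.0003 to 0.3. Cleaved RNA was gel-selected, reverse transcribed and barcode-sequenced together with genomic DNA barcodes, and UMIs were collapsed. Cleaved product abundance is the per-construct ratio of RNA to gDNA barcodes, scaled to the median of constructs carrying the unmutated site.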

Sequence | cleaved RNA product abundance
CGACATGTCCCGCTTCTTTCATTAATCCATTAGCAAATGTTTTGCTATATACATTTACCTTTTAAGAGGAGGAAT | 1.18
CGACATGTCCCGCTTCTTTCATTAATCCATTAGCAACTATTTTGCTATATACATTTACCTTTTAAGAGGAGGAAT | 0.423
CGACATGTCCCGCTTCTTTCATTAATCCATTAGCAACTGATTTGCTATATACATTTACCTTTTAAGAGGAGGAAT | 0.89
CGACATGTCCCGCTTCTTTCATTAATCCATTAGCAACTGTATTGCTATATACATTTACCTTTTAAGAGGAGGAAT | 0.279
CGACATGTCCCGCTTCTTTCATTAATCCATTAGCAACTGTTATGCTATATACATTTACCTTTTAAGAGGAGGAAT | 0.555
CGACATGTCCCGCTTCTTTCATTAATCCATTAGCAACTGTTCTGCTATATACATTTACCTTTTAAGAGGAGGAAT | 0.271
CGACATGTCCCGCTTCTTTCATTAATCCATTAGCAACTGTTTCGCTATATACATTTACCTTTTAAGAGGAGGAAT | 0.271
CGACATGTCCCGCTTCTTTCATTAATCCATTAGCAACTGTTTGGCTATATACATTTACCTTTTAAGAGGAGGAAT | 0.386
CGACATGTCCCGCTTCTTTCATTAATCCATTAGCAACTGTTTTACTATATACATATACCTTTTAAGAGGAGGAAT | 0.482
CGACATGTCCCGCTTCTTTCATTAATCCATTAGCAACTGTTTTACTATATACATTTACCTTTTAAGAGGAGGAAT | 0.48
CGACATGTCCCGCTTCTTTCATTAATCCATTAGCAACTGTTTTGATATATACAGTTACCTTTTAAGAGGAGGAAT | 0.247
CGACATGTCCCGCTTCTTTCATTAATCCATTAGCAACTGTTTTGATATATACATTTACCTTTTAAGAGGAGGAAT | 0.35
CGACATGTCCCGCTTCTTTCATTAATCCATTAGCAACTGTTTTGCAATATACATTTACCTTTTAAGAGGAGGAAT | 0.408
CGACATGTCCCGCTTCTTTCATTAATCCATTAGCAACTGTTTTGCTAAATACATTTACCTTTTAAGAGGAGGAAT | 0.47
CGACATGTCCCGCTTCTTTCATTAATCCATTAGCAACTGTTTTGCTACATACATTTACCTTTTAAGAGGAGGAAT | 0.772
CGACATGTCCCGCTTCTTTCATTAATCCATTAGCAACTGTTTTGCTATAGACATTTACCTTTTAAGAGGAGGAAT | 0.532
CGACATGTCCCGCTTCTTTCATTAATCCATTAGCAACTGTTTTGCTATATAAATTTACCTTTTAAGAGGAGGAAT | 0.754
CGACATGTCCCGCTTCTTTCATTAATCCATTAGCAACTGTTTTGCTATATACATATACCTTTTAAGAGGAGGAAT | 0.929
CGACATGTCCCGCTTCTTTCATTAATCCATTAGCAACTGTTTTGCTATATACATCTACCTTTTAAGAGGAGGAAT | 0.942
CGACATGTCCCGCTTCTTTCATTAATCCATTAGCAACTGTTTTGCTATATACATTAACCTTTTAAGAGGAGGAAT | 1.3
CGACATGTCCCGCTTCTTTCATTAATCCATTAGCAACTGTTTTGCTATATACATTCACCTTTTAAGAGGAGGAAT | 0.276
CGACATGTCCCGCTTCTTTCATTAATCCATTAGCAACTGTTTTGCTATATACATTTACATTTTAAGAGGAGGAAT | 0.688

Sequence | cleaved RNA product abundance
CGACATGTCCCGCTTCTTTCATTAATCCATTAGCAACTGTTTTGCTATATACATTTACCTTTTAAGAGGAGGAAT | 0.857
CGACATGTCCCGCTTCTTTCATTAATCCATTAGCAACTGTTTTGCTATATACATTTACGTTTTAAGAGGAGGAAT | 0.903
CGACATGTCCCGCTTCTTTCATTAATCCATTAGCAACTGTTTTGCTATATACATTTACTTTTTAAGAGGAGGAAT | 0.808
CGACATGTCCCGCTTCTTTCATTAATCCATTAGCAACTGTTTTGCTATATACATTTATCTTTTAAGAGGAGGAAT | 0.777
CGACATGTCCCGCTTCTTTCATTAATCCATTAGCAACTGTTTTGCTATATACATTTTACTTTTAAGAGGAGGAAT | 1.24
CGACATGTCCCGCTTCTTTCATTAATCCATTAGCAACTGTTTTGCTATATACATTTTCCTTTTAAGAGGAGGAAT | 0.292
CGACATGTCCCGCTTCTTTCATTAATCCATTAGCAACTGTTTTGCTATATACTTTTACCTTTTAAGAGGAGGAAT | 0.253
CGACATGTCCCGCTTCTTTCATTAATCCATTAGCAACTGTTTTGCTATATATATTTACCTTTTAAGAGGAGGAAT | 0.973
CGACATGTCCCGCTTCTTTCATTAATCCATTAGCAACTGTTTTTCTATATACATTTACCTTTTAAGAGGAGGAAT | 0.319
CGACATGTCCCGCTTCTTTCATTAATCCATTAGCAACTTTTTTGCTATATACATTTACCTTTTAAGAGGAGGAAT | 0.569
CGACATGTCCCGCTTCTTTCATTAATCCATTAGCAATTGTTTTGCTATATACATTTACCTTTTAAGAGGAGGAAT | 0.776
CGACATGTCCCGCTTCTTTCATTAATCCATTAGCAGCTGTTTTGCTATATACATTTACCTTTTAAGAGGAGGAAT | 0.324
CGACATGTCCCGCTTCTTTCATTAATCCATTAGCCACTGTTTTGCTATATACATTTACCTTTTAAGAGGAGGAAT | 0.271
CGACATGTCCCGCTTCTTTCATTAATCCATTATCAACTGTTTTGCTATATACATTTACCTTTTAAGAGGAGGAAT | 0.224
CGACATGTCCCGCTTCTTTCATTAATCCATTATCAACTTTTTTGCTATATACATTTACCTTTTAAGAGGAGGAAT | 0.311
CGACATGTCCCGCTTCTTTCATTAATCCATTTGCAACTGTTTTGCTATATACATTTACCTTTTAAGAGGAGGAAT | 0.236
CGACATGTCCCGCTTCTTTCATTAATCCCGTTAGCAACTGTTTTGCTATATACATTTACCTTTTAAGAGGAGGAA | 1.01
CGACATGTCCCGCTTCTTTCATTAATCCCTAAGCAACTGTTTTGCTATATACATTTACCTTTTAAGAGGAGGAAT | 0.229
CGACATGTCCCGCTTCTTTCATTAATCCCTTAACAACTGTATTGCTATATACATTTACCTTTTAAGAGGAGGAAT | 0.142
CGACATGTCCCGCTTCTTTCATTAATCCCTTACCAACTGTTTTGCTATATACATTTACCTTTTAAGAGGAGGAAT | 0.187
CGACATGTCCCGCTTCTTTCATTAATCCCTTAGAAACTGTTTTGCTATATACATTTACCTTTTAAGAGGAGGAAT | 0.173
CGACATGTCCCGCTTCTTTCATTAATCCCTTAGCAACTATTTTGCTATATACATTTACCTTTTAAGAGGAGGAAT | 0.323

Sequence | cleaved RNA product abundance
CGACATGTCCCGCTTCTTTCATTAATCCCTTAGCAACTCTTTTGCTATATACATTTACCTTTTAAGAGGAGGAAT | 0.0915
CGACATGTCCCGCTTCTTTCATTAATCCCTTAGCAACTGATTTGCTATATACATTTACCTTTTAAGAGGAGGAAT | 0.25
CGACATGTCCCGCTTCTTTCATTAATCCCTTAGCAACTGTTTAGCTATATACATTTACCTTTTAAGAGGAGGAAT | 0.236
CGACATGTCCCGCTTCTTTCATTAATCCCTTAGCAACTGTTTGGCTATATACATTTACCTTTTAAGAGGAGGAAT | 0.204
CGACATGTCCCGCTTCTTTCATTAATCCCTTAGCAACTGTTTTACTATATACATTTACCTTTTAAGAGGAGGAAT | 0.0875
CGACATGTCCCGCTTCTTTCATTAATCCCTTAGCAACTGTTTTCCTATATACATTTACCTTTTAAGAGGAGGAAT | 0.214
CGACATGTCCCGCTTCTTTCATTAATCCCTTAGCAACTGTTTTGATATATACATTTAACTTTTAAGAGGAGGAAT | 0.245
CGACATGTCCCGCTTCTTTCATTAATCCCTTAGCAACTGTTTTGCTAAATACATTTACCTTTTAAGAGGAGGAAT | 0.149
CGACATGTCCCGCTTCTTTCATTAATCCCTTAGCAACTGTTTTGCTAGATACATTTACCTTTTAAGAGGAGGAAT | 0.127
CGACATGTCCCGCTTCTTTCATTAATCCCTTAGCAACTGTTTTGCTATATACAATTACCTTTTAAGAGGAGGAAT | 0.305
CGACATGTCCCGCTTCTTTCATTAATCCCTTAGCAACTGTTTTGCTATATACACTTAACTTTTAAGAGGAGGAAT | 0.255
CGACATGTCCCGCTTCTTTCATTAATCCCTTAGCAACTGTTTTGCTATATACATATACCTTTTAAGAGGAGGAAT | 0.267
CGACATGTCCCGCTTCTTTCATTAATCCCTTAGCAACTGTTTTGCTATATACATTTAACTTTTAAGAGGAGGAAT | 0.237
CGACATGTCCCGCTTCTTTCATTAATCCCTTAGCAACTGTTTTGCTATATACATTTACATTTTAAGAGGAGGAAT | 0.242
CGACATGTCCCGCTTCTTTCATTAATCCCTTAGCAACTGTTTTGCTATATACATTTACCTTTTAAGAGGAGGAAT | 0.213
CGACATGTCCCGCTTCTTTCATTAATCCCTTAGCAACTGTTTTGCTATATACATTTACTTTTTAAGAGGAGGAAT | 0.19
CGACATGTCCCGCTTCTTTCATTAATCCCTTAGCAACTGTTTTGCTATATACTTTTACCTTTTAAGAGGAGGAAT | 0.166
CGACATGTCCCGCTTCTTTCATTAATCCCTTAGCAACTGTTTTGCTATATAGATTTACCTTTTAAGAGGAGGAAT | 0.355
CGACATGTCCCGCTTCTTTCATTAATCCCTTAGCAACTGTTTTGCTATATATATTTACCTTTTAAGAGGAGGAAT | 0.163
CGACATGTCCCGCTTCTTTCATTAATCCCTTAGCAACTGTTTTGCTATATTCATTTACCTTTTAAGAGGAGGAAT | 0.153
CGACATGTCCCGCTTCTTTCATTAATCCCTTAGCAACTGTTTTGCTGTATACATTTACCTTTTAAGAGGAGGAAT | 0.108
CGACATGTCCCGCTTCTTTCATTAATCCCTTAGCAACTGTTTTTCTATATACATTTACCTTTTAAGAGGAGGAAT | 0.163
